This note sets out measurements from the nanobody polyreactivity screen of Harvey et al. (2022).

A short description of the data set: yeast display, Sf9 membrane polyspecificity reagent, FACS + sequencing; frameworks hold sequencing errors. In short, it runs like this:
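Nanobodies from a synthetic yeast display library (Saccharomyces cerevisiae BJ5465), induced 36–48 hours with galactose, were stained 1 hour at 4 °C with 10% biotinylated, detergent-solubilized Sf9 membrane reagent, enriched on streptavidin microbeads, then FACS-sorted. Anti-HA (expression) and streptavidin (reagent binding) fluorescence set low and high (top ~1%) gates. Polyreactivity labels come from the gate of origin. Genes were colony-PCR amplified, MiSeq 2 × 250 sequenced and filtered by CDR length.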
In the case of “QVQLVESGGGLVQAGGSLRLSSAASGGIFRIYGMGSYRQAPGKERELVADISIGGRTTYADSVKGRFTISRDNAKNTVYLQMHSLKPEDTAVYYCKTPYWYRIGQRLAWYDYWGQGTQVTVSS”, the “polyreactivity (PSR sort gate)” value is on record as “low polyreactivity”.

As for “QVQLLESGGGLVQAGGSLRLSCAASGSTFQRYVMGWYRQAPGKERELVATITKSGGSTYYADSVKGRFTISRDIAKNTVYLQMNSLKPEDTAVYNCAAYLQWAFRGYYHWGQGTQVTVTS”, the “polyreactivity (PSR sort gate)” value is “high polyreactivity”.

Consider “QVQLVESGGGLVQAGGSLRLRCAASGFTFTAYAMGWYRQAPGKERELVAAITWRDGITYYADSVKGRFTISRDNAKNTVYLQMNSLKPEDTADYYCAASWSTEYYWGQGTQVTVSS”, for which the “polyreactivity (PSR sort gate)” value is “high polyreactivity”. Regarding “QVQLVESGGGLVQAGGSLRLSCAASGSTFQFYALGWYRQAPGKERELVAAISVSGDRTYYADSVKGRFTISRDYAKNTVYLQMNSLKPEDTAVYYCAASIWHFEVVSWYLYDYWGQGTQVTVSS”, the “polyreactivity (PSR sort gate)” value is recorded as “high polyreactivity”. As for “QVQLVESGGGLVQAGGSLRLSCAASGRTFRAYAMGWNRQPPGKVRELVAVISLSGGSTYYADSVKGRFTISRDNAKNTVYLQMNSLKPEDTAVYYCAAVDWSYTGWRYDYWGQGTQVTVSS”, the “polyreactivity (PSR sort gate)” value was “low polyreactivity”. For the sequence “QVQLVESGGGLVQAGGSLRLSCAASGIIFERYAMGWYRQAPGKERELVAAISKGGGSRTYYADSVQGRFTISRDTAKNTVYLQMNSLKPEDTAVYYCNADIWYGDMDYWGQGTQVTVSS”, the “polyreactivity (PSR sort gate)” value is “high polyreactivity”. As for “QVQLVESGGGLVQAGGSLRLSCAASGIIFYSYAMGWYRQAPGKERELVATISFSGDNTYYADSVKGRFTISRDNAKNTVYLQMNSLKPEDTAVYYCAAASTYGGYYYSVSFEYWGQGTQVTVSS”, the “polyreactivity (PSR sort gate)” value is reported as “low polyreactivity”. As for “QVQLVESGGGLVQAGGSLRLSCAASGRTFVSYDMGWYRQAPGKERELVATISWTAGSTYYADSVKGRFTISRDNAKNTVYLQMNSLKPEDTAVYYCAADVFYSIYDYWGQGTQVTVSS”, the “polyreactivity (PSR sort gate)” value is “low polyreactivity”. Take “QVQLEESGGGLVQAGGSLRLSCAASGLILRWNAMGWYRQAPGKERELVATINRGGSTNYADSVKGRFTISRDNAKNTVYLQMNSLKPEDTAVYYCYKARTSQYHHTYWRTYGYWGPGTQVTVSS”: the “polyreactivity (PSR sort gate)” value is given as “low polyreactivity”. On to “QVQLVESGGGLVQAGVSLRLSCAASGSIIWVYAMGWYRQAPGNERELVAAITSGVSTYYADSVKGRFTISRDNAKNTVYFQMNSLKPEETAVYYCAVVGGFRWIRMEYWGQGTQVTVSS”, for which the “polyreactivity (PSR sort gate)” value is given as “low polyreactivity”.

On to “QVQLVESGGGLVQAGGSLRLSCAASGRIFYYNTMGWYRQAPGKERELVAAISSTASTTYADSVKGRFTISRDNAKNTDYIQMNSLKPEDTAVYYCAADHRYHWANPRGYYYWGQGTQVTVSS”, for which the “polyreactivity (PSR sort gate)” value is listed as “high polyreactivity”.

With “QVQLVESGGGLVQAGGSLRLSCAASGFSFDFYTMGWYRQAPGKERELVAAITWSGDSTYYADSVKGRFTISRDNAKNTVDLQMNSLKPEDTAVYYCAVARVSQDGYRRRVTTWHDDYWGQGTQVTVSS”, the “polyreactivity (PSR sort gate)” value is “low polyreactivity”. As for “QVQLVESGGGLVQAGASLRLSCAASGSIFTRNTMGWYRQAPGKERELVARISGGRTNYADSVKGRFTISRDNAKNTVYLQMYSLKPVDTAVYYCAARGLYTPTKRSGDPYYYWGQGSQVTVSS”, the “polyreactivity (PSR sort gate)” value is on record as “high polyreactivity”. In the case of “QVQLVESGGGLVQAGGSLRLSCAASGSIFSHYAMGWYRQAPGKERELVARITWGGGSTYADCVKGRFTISRDNAKNTVYLQMKSLKPEDTAVYYCAAVPVGYDSDWGYYYWGQGTQVTVSS”, the “polyreactivity (PSR sort gate)” value is “low polyreactivity”.

“QVQLVESGGGLVQAGGSLRLSCAASGLTFHDYAMGWYIQAHVKERELVAGINSGGSTNYADSVKGRFTISRDNAKNTVYLQMNSLKPEDTAVYYCARGPQYDEGEYWGQCTQVTVSS”: the “polyreactivity (PSR sort gate)” value was “low polyreactivity”. Consider “QVQLVESGGGLVQAGGSLRLSCAASGRIFYYYAMGWYRQAPGKERELVAAITRRGGSTYYADSVKGRFTISRDNAKNTVYLQLNSLKPEDTAVYYCAKPDRTGWLDGDYWGQGTQVTVSS”, for which the “polyreactivity (PSR sort gate)” value is “low polyreactivity”.

“QVQLVESGGGLVQAGGSLRLSCAASGSIFGRYGAMGWYRQAPGKERELVAAIRTSGVSTYYADSVKGRFTISRDNAKNTVYLQMNSLKPEDTAVYYCAKGYNSYNLGKYGYWGQGTQVTVSS”: the “polyreactivity (PSR sort gate)” value was “low polyreactivity”. Take “QVQLVESGGGLVQAGGSLRLSCAASGRNFYGNAMGWYRQAPGKERELVAAISSGTSTNYADSVKGRFTISRDNAKNTVYLQMNSLKPEDTAVYYCAAGSYSRYLYSLYFDFDYWGQGTQVTVSS”: the “polyreactivity (PSR sort gate)” value is given as “low polyreactivity”. On to “QVQLVESGGGVVQAGGSLRLSCAASVSIFDDYAMGWYRQAPGKERELVASISRTGRTYYADSVKGRFTISRDNAKNTVYLQMNSLKPEDTAVYYCAATRYAPYRRYYYWGQGTQVTVSS”, for which the “polyreactivity (PSR sort gate)” value was “high polyreactivity”.

In the case of “QVQLEESGGGLVQAGGSLRLSCAASGRILVKNTMGWYRQAPGKERELVAAITSGGNTYYADSVKGRFTISRDNAKNTVYLQMNSLKPEDTAVYYCNKVSNRSGYYWGQGTQVTVSS”, the “polyreactivity (PSR sort gate)” value is given as “high polyreactivity”. For the sequence “QVQLVESGGGLVQAGGSLRLSCAASGRIFYYNAMGWYRQAPGKERELVAGITWRGGSTYYADSVKGRFTISRDNAKNTVYVQMNSLKPEDTAVYYCAKVGWTPYGVSPYDYWGQGTQVTVSS”, the “polyreactivity (PSR sort gate)” value is on record as “high polyreactivity”. Turning to “QVQLVESGGGLVQAGGSLRLSCAASGSTLTRNAMGLYRQAPGTERELVATITATGGSTYYADSVKGRFTISRDNAKYTVYLQMNSLKTEDTAVYYCAAAYPTYRHYYWGQGTQVTVSS”, the “polyreactivity (PSR sort gate)” value is on record as “low polyreactivity”. “QVQLVESGGGLVQAGGSLRLSCAASGFTFSSNVMGWYRQAPGKERELVAAISTSGDGSTYYADSVKGRFTISRDNAKNTVYLQMNSLIPEDTAVYYCAAEYPDEDGVYEYDSWGQGTQVTVSS”: the “polyreactivity (PSR sort gate)” value is “low polyreactivity”. With “QVQLVESGGGLVQAGGSLRLSCAASGFNFDGYAMGWYRQAPGKERELVAAITYSGGSTYYADSVKGRFTISRDNAKNTVYLQMNSLKPEDTAVYYCAAESYVYGGSDYDYWGQGTQVTVSS”, the “polyreactivity (PSR sort gate)” value is recorded as “low polyreactivity”. “QVQLVESGGGLVQAGGSLRLSCAASGFIFKDYAMRWYRHSPGKERELVAAITSGVSTNYADSVKGRFTISRDNAKNTVYLQMNSLKPEDTAVSYCNAKARLAGWWLFRLEYWGQGTQVTVSS”: the “polyreactivity (PSR sort gate)” value is listed as “low polyreactivity”. As for “QVQLVESGGGLVQAGGSLRLSCAASGRTFRKNAMGWYRQAPGKERELVAAISDTGGSTYYADSVKGRFTISRDNAKNTVYFQMNSLKTEDTAVYYCAATVRYRGFYYWGQGTQVTVSS”, the “polyreactivity (PSR sort gate)” value is listed as “high polyreactivity”. The same measure for “QVQLVESGGGLVQAGGSLRLSCAASGSTFQYYAMGWYRQAPGKERELVAAITHSGTRTYYADSVKGRFTISRDNAKNTVYLQMNSLKPEDTAVYYCAARGYGKYDYWGQGTQVTVSS”: “high polyreactivity”.

“QVQLVESGGGLVQAGGSLRLSCAASGFTFGPYAMGWYRQAPGKERELVAGITWSGASTYYADSVKGRFTISRDNAKNTVYLQMNSLKPEDTAVYYCARYYRLGSRYDYWGQGTQVTVSS”: the “polyreactivity (PSR sort gate)” value is “low polyreactivity”. For “QVQLVESGGGLVQAGGSLRLSCAASGRTFTRYTMGWYRQAPGKERELVAAISYSGGSTYYADSVKGRFTISRDNAKNTVYLQMNSLKPEDTAVYYCAAASVRWPGYDYWGQGTQVTVSS”, the “polyreactivity (PSR sort gate)” value is on record as “high polyreactivity”. For “QVQLVESGGGLVQAGGSLRLSCAASGYTFPQYAMRWYRQAPGKERELVAAITRRGGSTYYADSVKGRFTISRDNAKNTVYLQMNSLNPEDTAVYYGSARYYWGQGTQVTVSS”, the “polyreactivity (PSR sort gate)” value is reported as “high polyreactivity”. For “QVQLVESGGGLVQAGGSLRLSCAASGRIFSAYAMGWYRQAPGKERELVAAITSVGSTKYADSVKGLFTISRDNAKNTVYLQMNSLKPEDTAVYYCAAEYTRSFYIYYRFGYWGQGTQVTVSS”, the “polyreactivity (PSR sort gate)” value was “high polyreactivity”. As for “QVQLVESGGGLVQAGGSLRLSCAASGSIFVRYAMGWYRQAPGKERELVAAFTSSAGSTYYADSVKGRFTISRDNAKNTVYLQMNSLKPEDTAVYYCAAVRYYPSKFYYWGQGTQVTVSS”, the “polyreactivity (PSR sort gate)” value was “high polyreactivity”.

Consider “QVQLVESGGGLVQAGGSLRLSCAASGRTFTRYAMGWYRQAPGKERELVASITTGGRTYYADSVKGRFTISRDNAKNTVYLQMNSLKPEDTAVYYCAARTYGGFEYWGQGTQVTVSS”, for which the “polyreactivity (PSR sort gate)” value was “high polyreactivity”. On to “QVQLVESGGALVQAGGSLRLSCAASGRIFGGYAMGWYRQAPGTERELVAAISSGGRTYYADSVKGRFTISRDNAKNTVYLQMNSLKPEDTAVYYCNAYTRGFRLGYWGQGTQVTVSS”, for which the “polyreactivity (PSR sort gate)” value is listed as “high polyreactivity”. With “QVQLVESGGGLVQEGGSLRLSCAASGSILAGYAMGWYRQPPRKERELVDDITSGGDTYYADSVKGRFTISRDNAKNTVYLQMKSLKPEDTAVYYCNAVYEGRYEYAYYYRYDYWGQGTQVTVSS”, the “polyreactivity (PSR sort gate)” value is reported as “high polyreactivity”. The same measure for “QVQLVESGGGLVQAGGSLRLICAASGRTFYSYAMGWYRQAPGKERELVAAISSGGTTYYADSVKGRFTISRDNAKNTDYLQMNSLKPEDTAVYYCATSRAWRYRSYYWGQGTQVTVSS”: “high polyreactivity”; for “QVQLVESGGGLVQAGGSLRLSCSASGSTFYVYAMGWYRQAPGKERELVAAITDSGGSTYADSVKGRFTISRDNAKNTVYLQMNSLKPEDTAVYADSTYNWYYYYWGQGTQVTVSS”: “low polyreactivity”.

On to “QVQLVESGGGLVQAGGSLRLICAASGITFYIYGMGWYRQAPGKERELVAAITSGGSTYYADSVKGRFTISRDNAKNTVYLQMNSLKPEDTAVYYCAAGRYYGKGYYYWGQGTQVTVSS”, for which the “polyreactivity (PSR sort gate)” value is reported as “high polyreactivity”.

For the sequence “QVQLVESGGGLVQAGGSLRLSCAASGSTFPPNPMGWYRKATGKERELVSSIRRGGSTHYADSVKGRFTISRDNEKNTVYLQMNSLKPEDTAVYYCAKDVWRHYLNLYDYWGQGTQVTVSS”, the “polyreactivity (PSR sort gate)” value was “low polyreactivity”.

“QVQLVESGGGLVQAGGSLRLSCAASGFNFSHNAMGWYRQAPGKERELVAAISGSGGRTYYADSVKGRFTISRDNAKNTVDLQMNSLKPEDTAVYYCNAGRWWRRGYGYWGQVTQVTVSS”: the “polyreactivity (PSR sort gate)” value was “high polyreactivity”. With “QVQLVESGGGLVQAGGSLRLSCAASGFIFGSNAMGWYRQAPGKERELVAAIDSSGGRTYYADSVKGRFTISRDNAKNTVYLQMISLKPEDTAVYYCNVYRWSQLFEYDYWGQGTQVTVSS”, the “polyreactivity (PSR sort gate)” value is on record as “high polyreactivity”.
